Results on four molecules are retold here after patent US10450570B2, “Compositions and methods for controlling vasculature” (YALE UNIVERSITY, priority 2016, dated 2019).

Experiment [1] relates to HDLECs. Description: Glycolytic flux measurement (5-3H-glucose). It counts as cell-based, human. How it is done: Glycolysis was measured as previously described. Briefly, subconfluent HDLECs cultured in 12-well plates were incubated with 1 ml/well EBM2 medium (containing appropriate amount of serum and supplement) with 80 μCi/mmol 5-^3H-glucose (Perkin Elmer) for 2-3 hr. Then 0.8 ml/well medium was transferred into glass vials with hanging wells and filter papers soaked with H2O. After incubation in a cell culture incubator for at least 2 days to reach saturation, filter papers were taken out and the amount of evaporated ^3H2O was measured in a scintillation counter. Glucose oxidation, glutamine oxidation and fatty acid oxidation were measured essentially as reported. For measurement of glucose uptake, HDLECs were incubated with 2-[1-^14C]-deoxy-D-glucose (2.5 μCi/ml, Perkin Elmer) for 10 min. before PBS washing (at least 3 times to get rid of all radioactive medium) and then lysis with 500 μL 0.1 N NaOH. 400 μl NaOH cell lysate for each sample was transferred to scintillation vials containing scintillation liquid and measured.

For experiment [2], the system named is tail skin lymphatic formation. Description: Tail skin lymphatic formation in neonatal mice after adenovirus injection. It counts as in vivo. Conditions: adenovirus injected into mouse pups at P0 and P1, examined at P6. From the text: Adenovirus encoding GFP, empty CMV vector, sFGFR1-IIIC (Murakami, M. et al., 118, 3355-3366, (2008)), HK2 (Wu, R. et al. Circulation research 108, 60-69, (2011)), or Myc (from Vector Biolabs) for in vitro experiments was amplified in 293A cells according to the user manual of ViraPower™ Adenoviral Expression System (Life Technologies). Virus was tittered using Adeno-X™ Rapid Titer Kit (Clontech Laboratories). For in vivo experiments, LacZ- or sFGFR1-IIIC was amplified and purified at University of North Carolina virus vector core. Neonatal pups were injected i.p. with 5×10^8 FFU of LacZ or sFGFR1-IIIC virus at P0 and P1. Tail skin was harvested at P6 using a method published previously (Xu, Y. et al., J Cell Biol 188, 115-130, (2010)).

The subject of experiment [3] is FGF2-induced ERK activation in HDLECs. Description: FGF2-induced ERK activation, Western blot of phosphorylated and total ERK. Conditions: HDLECs infected with adenovirus, serum-starved, stimulated with FGF2. The experiment is classed as cell-based, human. How it is done:
Human dermal lymphatic endothelial cells (HDLECs, HMVEC-dLyNeo-Der Lym Endo EGM-2MV) and Pooled human umbilical vein endothelial cells (HUVECs) were purchased from Lonza and cultured in EBM2 basal medium with EGM-2 MV BulletKit. Both cell types were tested negative for mycoplasma in Lonza. Culture medium was changed every the other day. Tissue culture plates were coated with 0.1% gelatin (Sigma) for 30 min at 37° C. and washed with Dulbecco's Phosphate-Buffered Saline (Life Technologies) before cell plating. For siRNA-mediated gene knockdown, FGFR1 siRNA (ON-TARGETplus human FGFR1 siRNA, Dharmacon; Hs_FGFR1_6, Qiagen), FGFR3 siRNA (Hs_FGFR3_6, Qiagen), HK2 siRNA (s6562 human HK2 siRNA, Life Technologies), c-Myc siRNA (ON-TARGETplus human Myc siRNA, Dharmacon), AllStar negative control siRNA (Qiagen), and ON-TARGETplus Non-targeting pool (Dharmacon) were transfected by lipofectamine RNAimax reagent (Life Technologies). Human FGF2 was provided by Kaken Pharmaceutical Co, Ltd (Japan) and ordered from Peprotech. Human VEGFC, VEGFD, IGF1, IGF2 and PDGFBB were purchased from Peprotech. To assay the effect of FGFR1 knockdown on glycolytic enzyme expression, HDLECs, transfected with control or FGFR1 siRNA 3 days in advance, were replated and collected for protein analysis 24 hr later when the cell confluency reached ˜80%. […] ImageJ was used for densitometry quantification of western blot bands. […]
In general terms: Immunoblotting shows a protein as a band on a membrane.

Experiment [4] relates to HK2 and other glycolytic enzymes in HDLECs. Description: Western blot of glycolytic enzyme expression in HDLECs. It counts as cell-based, human. The conditions noted are these: protein. As for the experimental part: Human dermal lymphatic endothelial cells (HDLECs, HMVEC-dLyNeo-Der Lym Endo EGM-2MV) and Pooled human umbilical vein endothelial cells (HUVECs) were purchased from Lonza and cultured in EBM2 basal medium with EGM-2 MV BulletKit. Both cell types were tested negative for mycoplasma in Lonza. Culture medium was changed every the other day. Tissue culture plates were coated with 0.1% gelatin (Sigma) for 30 min at 37° C. and washed with Dulbecco's Phosphate-Buffered Saline (Life Technologies) before cell plating. For siRNA-mediated gene knockdown, FGFR1 siRNA (ON-TARGETplus human FGFR1 siRNA, Dharmacon; Hs_FGFR1_6, Qiagen), FGFR3 siRNA (Hs_FGFR3_6, Qiagen), HK2 siRNA (s6562 human HK2 siRNA, Life Technologies), c-Myc siRNA (ON-TARGETplus human Myc siRNA, Dharmacon), AllStar negative control siRNA (Qiagen), and ON-TARGETplus Non-targeting pool (Dharmacon) were transfected by lipofectamine RNAimax reagent (Life Technologies). Human FGF2 was provided by Kaken Pharmaceutical Co, Ltd (Japan) and ordered from Peprotech. Human VEGFC, VEGFD, IGF1, IGF2 and PDGFBB were purchased from Peprotech. To assay the effect of FGFR1 knockdown on glycolytic enzyme expression, HDLECs, transfected with control or FGFR1 siRNA 3 days in advance, were replated and collected for protein analysis 24 hr later when the cell confluency reached ˜80%. […] ImageJ was used for densitometry quantification of western blot bands.

B1: VEGFD: Human VEGFD growth factor purchased from Peprotech (protein, UniProt O43915 89-205, looked up)
Vascular endothelial growth …: FAATFYDIETLKVIDEEWQRTQCSPRETCVEVASELGKSTNTFFKPPCVNVFRCGGCCNEESLICMNTSTSYISKQLFEISVPLTSVPELVPVKVANHTGCKCLPTAPRHPYSIIRR
B1: the glycolytic flux entry in experiment [1] is listed as “no effect”.

B2: sFGFR1-IIIC: soluble pan-FGF receptor trap, delivered by adenovirus (protein, UniProt P11362 22-376, looked up)
extracellular domain: RPSPTLPEQAQPWGAPVEVESFLVHPGDLLQLRCRLRDDVQSINWLRDGVQLAESNRTRITGEEVEVQDSVPADSGLYACVTSSPSGSDTTYFSVNVSDALPSSEDDDDDDDSSSEEKETDNTKPNRMPVAPYWTSPEKMEKKLHAVPAAKTVKFKCPSSGTPNPTLRWLKNGKEFKPDHRIGGYKVRYATWSIIMDSVVPSDKGNYTCIVENEYGSINHTYQLDVVERSPHRPILQAGLPANKTVALGSNVEFMCKVYSDPQPHIQWLKHIEVNGSKIGPDNLPYVQILKTAGVNTTDKEMEVLHLRNVSFEDAGEYTCLAGNSIGLSHHSAWLTVLEALEERPAVMTSPLYLE
modifications: extracellular domain IIIc isoform, adenovirus-delivered
B2: in experiment [2], the “tail skin lymphatic formation” value is listed as “significant inhibition of tail skin lymphatic formation”. In addition, in experiment [3], the “FGF2-induced ERK activation” value is listed as “inhibited FGF2-induced ERK activation to the same extent as DN-FGFR1”.

B3: PDGFBB: platelet-derived growth factor-BB, purchased from Peprotech (protein, UniProt P01127 82-190, looked up)
Platelet-derived growth …: SLGSLTIAEPAMIAECKTRTEVFEISRRLIDRTNANFLVWPPCVEVQRCSGCCNNRNVQCRPTQVQLRPVQVRKIEIVRKKPIFKKATVTLEDHLACKCETVAAARPVT
For B3, the glycolytic flux entry in experiment [1] is “reduced flux”.

B4: VEGFC: Human VEGFC growth factor purchased from Peprotech (protein, UniProt P49767 112-227, looked up)
Vascular endothelial growth …: AHYNTEILKSIDNEWRKTQCMPREVCIDVGKEFGVATNTFFKPPCVSVYRCGGCCNSEGLQCMNTSTSYLSKTLFEITVPLSQGPKPVTISFANHTSCRCMSKLDVYRQVHSIIRR
For B4, in experiment [1], the glycolytic flux entry is reported as “increased glycolytic flux, albeit to a lesser extent than FGF2”. In experiment [4], the “glycolytic enzyme (HK2) expression” value is “increased HK2 expression without affecting other enzymes”.
